Measured values: the supplement of paper PMC5998384

Experiments:
HeLa Kyoto [1] = experiment: solubility change mitosis vs G1/S (difference of NP-40 vs SDS log2 ratios) (log2 ratio difference); higher = more soluble in mitosis
HeLa Kyoto [2] = experiment: solubility in G1/S (NP-40 vs SDS abundance) (log2 ratio); higher = more soluble; details: cell cycle stage: G1/S
HeLa Kyoto [3] = experiment: melting temperature (median over replicates), in situ; higher = more thermally stable
HeLa Kyoto [4] = experiment: thermal stability score vs G1/S (z-score of summed log2 fold changes over temperatures); higher = more thermally stable than in G1/S
[5] = cell cycle stage: early G1 (4.5 h after nocodazole release)
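For melting temperature (median over replicates), in situ in this document: HeLa Kyoto cells synchronized by double thymidine or nocodazole block, proteins quantified by TMT10plex mass spectrometry, three independent biological replicates.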
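For solubility change mitosis vs G1/S (difference of NP-40 vs SDS log2 ratios) in this document: synchronized HeLa Kyoto cells (double thymidine block for G1/S, nocodazole release for mitosis), protein amounts in NP-40 versus SDS lysates quantified by mass spectrometry, three biological replicates.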
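For solubility in G1/S (NP-40 vs SDS abundance) in this document: HeLa Kyoto cells arrested at G1/S by double thymidine block, proteins quantified by TMT10plex mass spectrometry in mild NP-40 versus SDS extracts, three biological replicates.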
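For thermal stability score vs G1/S (z-score of summed log2 fold changes over temperatures) in this document: synchronized HeLa Kyoto cells, proteins quantified by TMT10plex mass spectrometry, three biological replicates, mitosis taken 0.5 h after nocodazole release, G1/S directly after double thymidine block.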

Sequence of HAUS7 (chain, as listed by the source): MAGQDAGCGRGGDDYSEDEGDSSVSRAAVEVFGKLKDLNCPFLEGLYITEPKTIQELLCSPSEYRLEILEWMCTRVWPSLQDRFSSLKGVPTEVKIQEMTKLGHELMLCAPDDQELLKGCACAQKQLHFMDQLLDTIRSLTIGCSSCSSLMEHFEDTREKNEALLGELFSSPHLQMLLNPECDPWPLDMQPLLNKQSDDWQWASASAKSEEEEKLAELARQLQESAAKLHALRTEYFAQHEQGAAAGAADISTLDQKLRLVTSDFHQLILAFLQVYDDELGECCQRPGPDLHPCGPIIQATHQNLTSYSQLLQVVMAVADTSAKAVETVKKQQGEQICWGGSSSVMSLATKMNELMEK
Sequence of WWP2 (chain, as listed by the source): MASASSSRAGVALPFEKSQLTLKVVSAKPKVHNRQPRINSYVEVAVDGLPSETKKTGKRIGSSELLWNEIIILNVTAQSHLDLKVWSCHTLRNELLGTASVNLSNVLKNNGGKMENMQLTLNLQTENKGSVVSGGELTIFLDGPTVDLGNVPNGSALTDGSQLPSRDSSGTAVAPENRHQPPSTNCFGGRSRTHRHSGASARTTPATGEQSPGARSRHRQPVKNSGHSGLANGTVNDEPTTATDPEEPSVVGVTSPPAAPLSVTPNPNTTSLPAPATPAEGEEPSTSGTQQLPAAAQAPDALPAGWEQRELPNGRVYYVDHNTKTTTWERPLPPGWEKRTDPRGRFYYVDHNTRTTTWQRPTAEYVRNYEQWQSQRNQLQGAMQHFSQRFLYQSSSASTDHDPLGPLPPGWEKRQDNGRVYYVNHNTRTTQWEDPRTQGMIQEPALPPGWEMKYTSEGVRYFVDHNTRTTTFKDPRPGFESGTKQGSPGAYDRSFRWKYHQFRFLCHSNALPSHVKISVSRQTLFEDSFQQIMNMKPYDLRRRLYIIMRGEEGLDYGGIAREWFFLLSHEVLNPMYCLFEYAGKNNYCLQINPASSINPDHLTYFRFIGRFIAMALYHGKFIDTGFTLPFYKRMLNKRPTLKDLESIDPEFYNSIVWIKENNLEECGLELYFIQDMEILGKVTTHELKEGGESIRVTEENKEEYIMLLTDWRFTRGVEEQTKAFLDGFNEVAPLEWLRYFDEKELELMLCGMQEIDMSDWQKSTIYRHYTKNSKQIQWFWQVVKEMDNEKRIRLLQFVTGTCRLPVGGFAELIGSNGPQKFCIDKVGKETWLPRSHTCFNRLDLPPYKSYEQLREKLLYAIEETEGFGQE
Sequence of IRF2BPL (chain, as listed by the source): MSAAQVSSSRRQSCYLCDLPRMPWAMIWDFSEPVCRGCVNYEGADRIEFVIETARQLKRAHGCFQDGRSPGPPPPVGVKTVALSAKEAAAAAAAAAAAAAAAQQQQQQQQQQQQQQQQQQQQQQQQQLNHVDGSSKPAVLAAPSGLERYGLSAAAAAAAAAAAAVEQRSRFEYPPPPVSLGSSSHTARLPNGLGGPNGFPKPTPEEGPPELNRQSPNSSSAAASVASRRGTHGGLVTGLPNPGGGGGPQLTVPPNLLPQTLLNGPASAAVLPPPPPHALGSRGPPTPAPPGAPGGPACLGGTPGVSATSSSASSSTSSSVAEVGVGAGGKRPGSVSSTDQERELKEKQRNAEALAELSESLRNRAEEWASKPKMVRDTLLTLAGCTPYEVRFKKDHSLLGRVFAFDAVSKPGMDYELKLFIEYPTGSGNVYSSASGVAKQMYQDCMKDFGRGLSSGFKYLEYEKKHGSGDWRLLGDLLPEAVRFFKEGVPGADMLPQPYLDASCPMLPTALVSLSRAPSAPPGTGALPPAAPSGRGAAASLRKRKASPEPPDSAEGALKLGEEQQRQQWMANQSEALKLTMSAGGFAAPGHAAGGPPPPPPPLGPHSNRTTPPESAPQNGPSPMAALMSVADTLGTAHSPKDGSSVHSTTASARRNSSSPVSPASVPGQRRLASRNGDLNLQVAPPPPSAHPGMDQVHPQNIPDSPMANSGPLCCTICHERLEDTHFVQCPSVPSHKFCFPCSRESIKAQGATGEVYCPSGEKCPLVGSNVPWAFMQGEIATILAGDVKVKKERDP

Substance | solubility change mitosis (log2) (HeLa Kyoto [1]) | solubility in G1/S (log2) (HeLa Kyoto [2]) | melting temperature (HeLa Kyoto [3]; cell cycle stage: G1/S) | melting temperature (HeLa Kyoto [3]; cell cycle stage: mitosis) | thermal stability score (HeLa Kyoto [4]; [5]) | thermal stability score (HeLa Kyoto [4]; cell cycle stage: mitosis)
BAZ2A | 0.217 | -0.382 | 48.3 °C | 49.6 °C |  | 
DLG5 | 0.289 | -0.385 |  | 47.5 °C |  | 
HAUS7 | -0.0535 | 0.51 | 50.7 °C |  |  | 
IRF2BPL | -0.131 | 0.519 | 50 °C | 50.9 °C |  | 
KANSL3 | 0.061 | 0.155 |  | 48.6 °C |  | 
MAAAAPNAGGSAPETAGSAEAPLQYSLLLQYLVGDKRQPRLLEPGSLGGIPSPAKSEEQKMIEKAMESCAFKAALACVGGFVLGGAFGVFTAGIDTNVGFDPKDPYRTPTAKEVLKDMGQRGMSYAKNFAIVGAMFSCTECLIESYRGTSDWKNSVISGCITGGAIGFRAGLKAGAIGCGGFAAFSAAIDYYLR [TIMM22] | -0.0464 | 0.0827 | 56 °C | 56.3 °C |  | 
MAAATIVHDTSEAVELCPAYGLYLKPITKMTISVALPQLKQPGKSISNWEVMERLKGMVQNHQFSTLRISKSTMDFIRFEGEVENKSLVKSFLACLDGKTIKLSGFSDILKVRAAEFKIDFPTRHDWDSFFRDAKDMNETLPGERPDTIHLEGLPCKWFALKESGSEKPSEDVLVKVFEKFGEIRNVDIPMLDPYREEMTGRNFHTFSFGGHLNFEAYVQYREYMGFIQAMSALRGMKLMYKGEDGKAVACNIKVSFDSTKHLSDASIKKRQLERQKLQELEQQREEQKRREKEAEERQRAEERKQKELEELERERKREEKLRKREQKQRDRELRRNQKKLEKLQAEEQKQLQEKIKLEERKLLLAQRNLQSIRLIAELLSRAKAVKLREQEQKEEKLRLQQQEERRRLQEAELRRVEEEKERALGLQRKERELRERLLSILLSKKPDDSHTHDELGVAHADLLQPVLDILQTVSSGCVSATTLHPLGGQPPAGAPKESPAHPEADGAPKSVNGSVAEEAPCKEVQSSCRVVPEDGSPEKRCPGGVLSCIPDNNQQPKGIPACEQNVSRKDTRSEQDKCNREPSKGRGRATGDGLADRHKRERSRARRASSREDGRPRKERRPHKKHAYKDDSPRRRSTSPDHTRSRRSHSKDRHRRERSRERRGSASRKHSRHRRRSERSRSRSPSRHRSTWNR [AKAP17A] | 0.521 | -1.06 | 47 °C | 49.2 °C |  | 
MAADVSVTHRPPLSPKSGAEVEAGDAAERRAPEEELPPLDPEEIRKRLEHTERQFRNRRKILIRGLPGDVTNQEVHDLLSDYELKYCFVDKYKGTAFVTLLNGEQAEAAINAFHQSRLRERELSVQLQPTDALLCVANLPPSLTQQQFEELVRPFGSLERCFLVYSERTGQSKGYGFAEYMKKDSAARAKSDLLGKPLGPRTLYVHWTDAGQLTPALLHSRCLCVDRLPPGFNDVDALCRALSAVHSPTFCQLACGQDGQLKGFAVLEYETAEMAEEAQQQADGLSLGGSHLRVSFCAPGPPGRSMLAALIAAQATALNRGKGLLPEPNILQLLNNLGPSASLQLLLNPLLHGSAGGKQGLLGAPPAMPLLNGPALSTALLQLALQTQGQKKPGILGDSPLGALQPGAQPANPLLGELPAGGGLPPELPPRRGKPPPLLPSVLGPAGGDREALGLGPPAAQLTPPPAPVGLRGSGLRGPLSHFYSGSPTSYFTSGLQAGLKQSHLSKAIGSSPLGSGEGLLGLSPGPNGHSHLLKVRAGGGDMQGWEAPAPQRPLTRPALPSVSRPHWAARNAALPTCCPRPSPAQKAAMWASTPRASAATTRTPT [RAVER1] | 0.165 | 0.344 | 46.3 °C | 48.9 °C |  | 
MAALGRPFSGLPLSGGSDFLQPPQPAFPGRAFPPGADGAELAPRPGPRAVPSSPAGSAARGRVSVHCKKKHKREEEEDDDCPVRKKRITEAELCAGPNDWILCAHQDVEGHGVNPSVSGLSIPGILDVICEEMDQTTGEPQCEVARRKLQEIEDRIIDEDEEVEADRNVNHLPSLVLSDTMKTGLKREFDEVFTKKMIESMSRPSMELVLWKPLPELLSDKPKPSSNTKNYTGESQAKHVAAGTAFPQRTELFSEPRPTGMSLYNSLETATSTEEEMEL [CCDC117] | 0.183 | 0.515 | 51.6 °C | 53.2 °C |  | 
MAAQPPRGIRLSALCPKFLHTNSTSHTWPFSAVAELIDNAYDPDVNAKQIWIDKTVINDHICLTFTDNGNGMTSDKLHKMLSFGFSDKVTMNGHVPVGLYGNGFKSGSMRLGKDAIVFTKNGESMSVGLLSQTYLEVIKAEHVVVPIVAFNKHRQMINLAESKASLAAILEHSLFSTEQKLLAELDAIIGKKGTRIIIWNLRSYKNATEFDFEKDKYDIRIPEDLDEITGKKGYKKQERMDQIAPESDYSLRAYCSILYLKPRMQIILRGQKVKTQLVSKSLAYIERDVYRPKFLSKTVRITFGFNCRNKDHYGIMMYHRNRLIKAYEKVGCQLRANNMGVGVVGIIECNFLKPTHNKQDFDYTNEYRLTITALGEKLNDYWNEMKVKKNTEYPLNLPVEDIQKRPDQTWVQCDACLKWRKLPDGMDQLPEKWYCSNNPDPQFRNCEVPEEPEDEDLVHPTYEKTYKKTNKEKFRIRQPEMIPRINAELLFRPTALSTPSFSSPKESVPRRHLSEGTNSYATRLLNNHQVPPQSEPESNSLKRRLSTRSSILNAKNRRLSSQFENSVYKGDDDDEDVIILEENSTPKPAVDHDIDMKSEQSHVEQGGVQVEFVGDSEPCGQTGSTSTSSSRCDQGNTAATQTEVPSLVVKKEETVEDEIDVRNDAVILPSCVEAEAKIHETQETTDKSADDAGCQLQELRNQLLLVTEEKENYKRQCHMFTDQIKVLQQRILEMNDKYVKKETCHQSTETDAVFLLESINGKSESPDHMVSQYQQALEEIERLKKQCSALQHVKAECSQCSNNESKSEMDEMAVQLDDVFRQLDKCSIERDQYKSEVELLEMEKSQIRSQCEELKTEVEQLKSTNQQTATDVSTSSNIEESVNHMDGESLKLRSLRVNVGQLLAMIVPDLDLQQVNYDVDVVDEILGQVVEQMSEISST [MORC3] | -0.206 | -0.0527 | 48.7 °C | 49.6 °C |  | 
MAASRSTRVTRSTVGLNGLDESFCGRTLRNRSIAHPEEISSNSQVRSRSPKKRPEPVPIQKGNNNGRTTDLKQQSTRESWVSPRKRGLSSSEKDNIERQAIENCERRQTEPVSPVLKRIKRCLRSEAPNSSEEDSPIKSDKESVEQRSTVVDNDADFQGTKRACRCLILDDCEKREIKKVNVSEEGPLNSAVVEEITGYLAVNGVDDSDSAVINCDDCQPDGNTKQNSIGSYVLQEKSVAENGDTDTQTSMFLDSRKEDSYIDHKVPCTDSQVQVKLEDHKIVTACLPVEHVNQLTTEPATGPFSETQSSLRDSEEEVDVVGDSSASKEQCKENTNNELDTSLESMPASGEPEPSPVLDCVSAQMMSLSEPQEHRYTLRTSPRRAAPTRGSPTKNSSPYRENGQFEENNLSPNETNATVSDNVSQSPTNPGEISQNEKGICCDSQNNGSEGVSKPPSEARLNIGHLPSAKESASQHITEEEDDDPDVYYFESDHVALKHNKDYQRLLQTIAVLEAQRSQAVQDLESLGRHQREALKNPIGFVEKLQKKADIGLPYPQRVVQLPEIVWDQYTHSLGNFEREFKNRKRHTRRVKLVFDKVGLPARPKSPLDPKKDGESLSYSMLPLSDGPEGSSSRPQMIRGRLCDDTKPETFNQLWTVEEQKKLEQLLIKYPPEEVESRRWQKIADELGNRTAKQVASRVQKYFIKLTKAGIPVPGRTPNLYIYSKKSSTSRRQHPLNKHLFKPSTFMTSHEPPVYMDEDDDRSCFHSHMNTAVEDASDDESIPIMYRNLPEYKELLQFKKLKKQKLQQMQAESGFVQHVGFKCDNCGIEPIQGVRWHCQDCPPEMSLDFCDSCSDCLHETDIHKEDHQLEPIYRSETFLDRDYCVSQGTSYNYLDPNYFPANR [ZZZ3] | 0.273 | -0.198 | 48.9 °C | 49.1 °C |  | 
MADKPDMGEIASFDKAKLKKTETQEKNTLPTKETIEQEKRSEIS [TMSB10] | 0.336 | -1.37 | 53.8 °C |  |  | 
MADSSPALSLREGGPRAPRPSAPSPPPRSRSGSESEEAELSLSLARTKTRSYGSTASVRAPLGAGVIERHVEHRVRAGDTLQGIALKYGVTMEQIKRANKLFTNDCIFLKKTLNIPVISEKPLLFNGLNSIDSPENETADNSFSQEEEPVVAGEDLPPPSPQESDVQPVQPEEVSARDFLQRLDLQIKLSTQAAKKLKEESRDEESPYATSLYHS [LYSMD2] | -0.0367 | 0.0316 | 52 °C | 51.8 °C |  | 
TNS1 | 0.117 | -0.0779 |  |  | 0.323 | 1.79
WWP2 | -0.0544 | -0.136 |  |  | 0.284 | -1.96
